Experimental findings from US20170183640A1 (WISCONSIN ALUMNI RESEARCH FOUNDATION, published 2017) are described below.

Series [1] concerns the molecule itself. The series can be described thus: DSG crosslinking, SDS-PAGE, self-association. An excerpt: (§1) The crosslinking covalently traps Ref in oligomeric states. […] Cys11 is responsible for dimerization of the P1 Ref protein.
Upon amino acid sequence analysis of P1 WT and φW39 WT, we noticed that P1 Ref contains Cys11 while φW39 Ref contains Arg11.

Series [2] concerns the molecule itself. The series can be described thus: gel filtration (Superdex 200), self-association, Example 4. In general terms: In gel filtration, larger molecules generally elute earlier.
Series [3] deals with the molecule itself. Nature of the series: ultracentrifugation, self-association (dimerization).
Series [4] deals with the molecule itself. The series can be described thus: DSG crosslinking, SDS-PAGE (FIG. 7), self-association.
Text: as §1
In order to determine the role of Cys11, a φW39 R11C variant was constructed and purified. […] The truncation variants' monomeric state was verified by analytical size exclusion (FIG. 9).

B1: P1 ΔN76 Ref (enzyme)
chain: GRTPTAEERRIANALGALPCIACYMHGVISNEVSLHHIAGRTAPGCHKKQLPLCRWHHQHAAPAEVREKYPWLVPVHADGVVGGKKEFTLLNKSEMELLADAYEMANIMH
notes: Purified as in Gruenig et al 2011; The range 77-186 is derived from the name ΔN76
Consider B1, for which the binding result in series [1] was “no binding”.

B2: φW39 ΔN47 Ref (enzyme)
chain: DRRIAKQKERPPASKTRKSAVKIKSRGLKGRTPTAEERTIANALGTLPCIACYMHGVISEEVSLHHISGRTAPGCHKKQLPLCRWHHQHAAPAEVREKYPWLVPVHADGVVGGKKEFTLLNKSEMELLADAYEMANIMH
notes: Plasmid pEAW865; The construct starts with a Met codon from the NdeI site
Consider B2, for which the “apparent molecular mass by gel filtration” value (“apparent molecular mass” below) in series [2] was 27.6 kDa.

B3: φW39 ΔN21 Ref (enzyme)
chain: AIARQREKLADPAWRESQYQKMRDSIDRRIAKQKERPPASKTRKSAVKIKSRGLKGRTPTAEERTIANALGTLPCIACYMHGVISEEVSLHHISGRTAPGCHKKQLPLCRWHHQHAAPAEVREKYPWLVPVHADGVVGGKKEFTLLNKSEMELLADAYEMANIMH
notes: Plasmid pEAW886; The construct starts with a Met codon from the NdeI site
For B3, the “apparent molecular mass” value in series [2] was determined as 33.6 kDa.

B4: P1 wild type Ref (bacteriophage P1 full length Ref protein) (enzyme)
chain: MKTIEQKIEQCRKWQKAARERAIARQREKLADPVWRESQYQKMRDTLDRRIAKQKERPPASKTRKSAVKIKSRGLKGRTPTAEERRIANALGALPCIACYMHGVISNEVSLHHIAGRTAPGCHKKQLPLCRWHHQHAAPAEVREKYPWLVPVHADGVVGGKKEFTLLNKSEMELLADAYEMANIMH
notes: Full-length native protein purified from E. coli; The dimer is reported to be held by a Cys11 disulfide bond
As for B4, in series [3], the binding result is listed as “binds”.

B5: φW39 wild type Ref (φW39 phage full length Ref protein) (enzyme)
chain: MKTIEQKLEQRREWQKAARERAIARQREKLADPAWRESQYQKMRDSIDRRIAKQKERPPASKTRKSAVKIKSRGLKGRTPTAEERTIANALGTLPCIACYMHGVISEEVSLHHISGRTAPGCHKKQLPLCRWHHQHAAPAEVREKYPWLVPVHADGVVGGKKEFTLLNKSEMELLADAYEMANIMH
notes: Full-length native protein
With B5, the “apparent molecular mass” value in series [2] was determined as 35 kDa.

B6: φW39 R11C Ref (enzyme)
chain: MKTIEQKLEQCREWQKAARERAIARQREKLADPAWRESQYQKMRDSIDRRIAKQKERPPASKTRKSAVKIKSRGLKGRTPTAEERTIANALGTLPCIACYMHGVISEEVSLHHISGRTAPGCHKKQLPLCRWHHQHAAPAEVREKYPWLVPVHADGVVGGKKEFTLLNKSEMELLADAYEMANIMH
notes: Plasmid pEAW933; Full-length variant
Consider B6, for which the binding result in series [4] is “binds”.
